Experimental data taken from article doi:10.1101/2020.01.21.914390 (bioRxiv, 2020).

Target: GST tagged MYB52 fusion protein (Arabidopsis thaliana, UniProt Q6R0C4 1-249)
Test: pull-down

Chain of GST tagged MYB52 fusion protein (Q6R0C4 whole entry, the tested form may be a part): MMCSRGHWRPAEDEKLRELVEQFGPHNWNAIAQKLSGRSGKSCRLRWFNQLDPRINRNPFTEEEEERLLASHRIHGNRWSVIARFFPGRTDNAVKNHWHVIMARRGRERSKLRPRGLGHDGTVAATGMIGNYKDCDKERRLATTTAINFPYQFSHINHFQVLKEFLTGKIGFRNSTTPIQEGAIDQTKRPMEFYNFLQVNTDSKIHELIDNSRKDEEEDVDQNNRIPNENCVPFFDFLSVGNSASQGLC

binding result: binds
B1: MBP tagged ERF4 fusion protein (ETHYLENE RESPONSIVE FACTOR4) (natural protein)
chain: not shown
